Measurements published in PMC11253593.

How the values were obtained:
[1] = target: DdrI (DR0997), CRP family protein from Deinococcus radiodurans, untagged (Deinococcus radiodurans); experiment: SEC; gel filtration of the purified protein to check homogeneity and oligomeric state; also run with cAMP and Mn2+ added (dimer formation not affected)
[2] = target: eGFP-DdrI (DdrI with N-terminal fused eGFP) (Deinococcus radiodurans); experiment: as above

stoichiometry N [1]	stoichiometry N [2]	Substance
2		DdrI (DR0997), CRP family protein from Deinococcus radiodurans, untagged (natural protein)
	2	eGFP-DdrI (DdrI with N-terminal fused eGFP) (natural protein)
